Experimental data published in US20230065562A1, “DUAL CONTROLS FOR THERAPEUTIC CELL ACTIVATION OR ELIMINATION” (Bellicum Pharmaceuticals, Inc., priority 2015, published 2023).
“Also recorded” adds a separate entry of the source. Where a SMILES comes first, the peptide text is derived from it. Where no end group is shown, it is not given here. The star is where a group is joined. Cbz = O=C(OCc1ccccc1)*; CH2F = FC*

How the values were obtained:
Format in all cases: cell-based, human
transduced T cells = assay: T cell caspase assay (IncuCyte, caspase 3/7 green reagent)
Experimental: To enable detection of apoptosis using the IncuCyte instrument, 2 μM of IncuCyte™ Kinetic Caspase-3/7 Apoptosis reagent (Essen Bioscience, 4440) were add to each well to reach a total volume of 200 μl. The plates were centrifuged for 5 min at 400×g and placed inside the IncuCyte (Dual Color Model 4459) to monitor green fluorescence every 2-3 hours for a total of 48 hours at 10× objective. Image analysis was performed using the “Tcells_caspreagent_phase_green_10×_MLD” processing definition. The “Total Green Object Integrated Intensity” metric is used to quantify caspase activation. Each condition was performed in duplicates and each well was imaged at 4 different locations.
To enable detection of apoptosis using the IncuCyte instrument, 2 μM of IncuCyte™ Kinetic Caspase-3/7 Apoptosis reagent (Essen Bioscience, 4440) was added to each well to reach a total volume of 200 μl. The plates were centrifuged for 5 min at 400×g and placed inside the IncuCyte (Dual Color Model 4459) to monitor green fluorescence every 2-3 hours for a total of 48 hours at 10× objective. Image analysis was performed using the “Tcells_caspreagent_phase_green_10×_MLD” processing definition. The “Total Green Object Integrated Intensity” metric and the “Phase Object Confluence (Percent)” were used to quantify caspase activation. Each condition was performed in duplicate and each well was imaged at 4 different locations.

[1] = tested on: iCasp9M-transduced EBV-CTLs; assay: CID-induced apoptosis / loss of GFP+ cells in iCasp9M-transduced EBV-CTLs; conditions: 100 μM for 1 hour prior to adding CID
Experimental: CID (AP20187; ARIAD Pharmaceuticals) at indicated concentrations was added to transfected 293T cells or transduced CTLs. Adherent and nonadherent cells were harvested and washed with annexin binding buffer (BD Pharmingen, San Jose, Calif.). Cells were stained with annexin-V and 7-amino-actinomycin D (7-AAD) for 15 minutes according to the manufacturer's instructions (BD Pharmingen). Within 1 hour after staining, cells were analyzed by flow cytometry using CellQuest software (Becton Dickinson).
Inducible iCasp9M proficiency in CTLs was tested by monitoring loss of GFP-expressing cells after administration of CID; 91.3% (range, 89.5%-92.6% in 5 different donors) of GFP^+ cells were eliminated after a single 10-nM dose of CID. […] In all experiments, CTLs that survived CID treatment had low transgene expression with a 70% (range, 55%-82%) reduction in mean fluorescence intensity of GFP after CID. No further elimination of the surviving GFP^+ T cells could be obtained by an antigenic stimulation followed by a second 10-nM dose of CID. Therefore, the non-responding CTLs most likely expressed insufficient iCasp9M for functional activation by CID. To investigate the correlation between low levels of expression and CTL non-response to CID, CTLs were sorted for low, intermediate, and high expression of the linked marker gene GFP and mixed 1:1 with nontransduced CTLs from the same donor to allow for an accurate quantitation of the number of transduced T cells responding to CID-induced apoptosis.
The number of transduced T cells eliminated increased with the level of GFP transgene expression (see FIGS. 4A, 4B and 4C). To determine the correlation between transgene expression and function of iCasp9M, iCasp9M IRES.GFP-transduced EBV-CTL were selected for low (mean 21), intermediate (mean 80) and high (mean 189) GFP expression. Selected T-cells were incubated overnight with 10 nM CID and subsequently stained with annexin V and 7-AAD. Indicated are the percentages of annexin V+/7-AAD− and annexin V+/7-AAD+ T−. Selected T-cells were mixed 1:1 with non-transduced T-cells and incubated with 10 nM CID following antigenic stimulation. Indicated is the percentage of residual GFP-positive T-cells on day 7.
For GFPhigh-selected cells, 10 nM CID led to deletion of 99.1% (range, 98.7%-99.4%) of transduced cells. On the day of antigen stimulation, F-Casp9M.I.GFP-transduced CTLs were either untreated or treated with 10 nM CID. Seven days later, the response to CID was measured by flow cytometry for GFP. The percentage of transduced T cells was adjusted to 50% to allow for an accurate measurement of residual GFP^+ cells after CID treatment. The responses to CID in unselected (top row of and GFPhigh-selected CTLs (bottom row of was compared. The percentage of residual GFP^+ cells is indicated.
After overnight incubation with 10 nM CID, F-Casp9M.I.GFPhigh-transduced T cells had apoptotic characteristics such as cell shrinkage and fragmentation by microscopic evaluation. […] A representative example of 3 separate experiments is shown.

HEK293T/16 cells = assay: Secreted alkaline phosphatase (SEAP)-based surrogate killing assay of iCasp9 mutants; conditions: for basal activity: relative SEAP activity Units: no AP1903; for Basal Activity (relative to wild type/unmodified Caspase-9): SEAP assay without AP1903
primary T cells = assay: AP1903-dependent cytotoxicity in primary T cells transduced with iCasp9 variants; conditions: for killing of target T cells within 10 days: AP1903 at day 0 and day 4; for sensitivity to AP1903 in primary T cells: mostly single copy, 24-hour assay
Experimental: The effects of various caspase polypeptides at mostly single copy in primary T cells was assayed. This may reflect more accurately how these suicide genes will be used therapeutically.
Primary T cells from healthy donors (n=6) were transduced with retrovirus encoding mutant or wild-type iCasp9 or iCasp9-D330A, and the ΔCD19 cell surface marker. Following transduction, iCasp9-transduced T cells were purified using CD19-microbeads and a magnetic column.

Q-LEHD-OPh (QLEHD-OPh)
level not toxic to the T cells (transduced T cells): > 100 µM
concentration efficiently inhibiting caspase-9 activation by iC9 and iRC9 (transduced T cells; 20 nM of the respective activating ligands): ≤ 4 µM

COC(=O)C[C@H](NC(=O)[C@H](C)NC(=O)[C@@H](NC(=O)OCc1ccccc1)C(C)C)C(=O)CF [zVAD-fmk] (Cbz-Val-Ala-Asp(OMe)-CH2F)
effect on CID-induced apoptosis [1]: inhibited

B1: N405Q: modified iCasp9, N405Q (SEQ ID NO: 26) (protein)
chain: GFGDVGALESLRGNADLAYILSMEPCGHCLIINNVNFCRESGLRTRTGSNIDCEKLRRRFSSLHFMVEVKGDLTAKKMVLALLELARQDHGALDCCVVVILSHGCQASHLQFPGAVYGTDGCPVSVEKIVNIFNGTSCPSLGGKPKLFFIQACGGEQKDHGFEVASTSPEDESPGSNPEPDATPFQEGLRTFDQLDAISSLPTPSDIFVSYSTFPGFVSWRDPKSGSWYVETLDDIFEQWAHSEDLQSLLLRVANAVSVKGIYKQMPGCFQFLRKKLFFKTS
basal activity: relative SEAP activity Units (HEK293T/16 cells; 1 μg iCasp9 per million cells): 179081 Units
basal activity: relative SEAP activity Units (HEK293T/16 cells; 2 μg iCasp9 per million cells): 175529 Units
Basal Activity (relative to wild type/unmodified Caspase-9) (HEK293T/16 cells): lower basal signaling; also recorded: lowered basal activity; also recorded: consistently lower basal activity; also recorded: lower basal activity than D330A; also recorded: very low basal activity; also recorded: Decreased
killing of target T cells within 10 days (primary T cells): indistinguishable from wild type
sensitivity to AP1903 in primary T cells (primary T cells): less sensitive to AP1903

B2: D330A: modified iCasp9, D330A (SEQ ID NO: 24) (protein)
chain: GFGDVGALESLRGNADLAYILSMEPCGHCLIINNVNFCRESGLRTRTGSNIDCEKLRRRFSSLHFMVEVKGDLTAKKMVLALLELARQDHGALDCCVVVILSHGCQASHLQFPGAVYGTDGCPVSVEKIVNIFNGTSCPSLGGKPKLFFIQACGGEQKDHGFEVASTSPEDESPGSNPEPDATPFQEGLRTFDQLAAISSLPTPSDIFVSYSTFPGFVSWRDPKSGSWYVETLDDIFEQWAHSEDLQSLLLRVANAVSVKGIYKQMPGCFNFLRKKLFFKTS
basal activity: relative SEAP activity Units (HEK293T/16 cells; 1 μg iCasp9 per million cells): 148928 Units
basal activity: relative SEAP activity Units (HEK293T/16 cells; 2 μg iCasp9 per million cells): 136863 Units
Basal Activity (relative to wild type/unmodified Caspase-9) (HEK293T/16 cells): lowered basal signaling; also recorded: lowered basal activity; also recorded: less basal activity than wild type Caspase-9; also recorded: Decreased
IC50 of AP1903 in transduced T cells versus wild-type iCasp9 (primary T cells; AP1903 0-100 nM, 24 hours, 6 donors): significantly lower
sensitivity to AP1903 in primary T cells (primary T cells): more sensitive to AP1903 at low titers; also recorded: more sensitive to AP1903 than the wild type

B3: F404Y: modified iCasp9, F404Y (protein)
chain: VDGFGDVGALESLRGNADLAYILSMEPCGHCLIINNVNFCRESGLRTRTGSNIDCEKLRRRFSSLHFMVEVKGDLTAKKMVLALLELARQDHGALDCCVVVILSHGCQASHLQFPGAVYGTDGCPVSVEKIVNIFNGTSCPSLGGKPKLFFIQACGGEQKDHGFEVASTSPEDESPGSNPEPDATPFQEGLRTFDQLDAISSLPTPSDIFVSYSTFPGFVSWRDPKSGSWYVETLDDIFEQWAHSEDLQSLLLRVANAVSVKGIYKQMPGCYNFLRKKLFFKTSASRA
Basal Activity (relative to wild type/unmodified Caspase-9) (HEK293T/16 cells): lowered basal activity; also recorded: Decreased
killing of target T cells within 10 days (primary T cells): indistinguishable from wild type

B4: S196D: modified iCasp9, S196D (protein)
chain: VDGFGDVGALESLRGNADLAYILSMEPCGHCLIINNVNFCRESGLRTRTGSNIDCEKLRRRFSDLHFMVEVKGDLTAKKMVLALLELARQDHGALDCCVVVILSHGCQASHLQFPGAVYGTDGCPVSVEKIVNIFNGTSCPSLGGKPKLFFIQACGGEQKDHGFEVASTSPEDESPGSNPEPDATPFQEGLRTFDQLDAISSLPTPSDIFVSYSTFPGFVSWRDPKSGSWYVETLDDIFEQWAHSEDLQSLLLRVANAVSVKGIYKQMPGCFNFLRKKLFFKTSASRA
Basal Activity (relative to wild type/unmodified Caspase-9) (HEK293T/16 cells): Decreased

B5: S144D: modified iCasp9, S144D (protein)
chain: VDGFGDVGALEDLRGNADLAYILSMEPCGHCLIINNVNFCRESGLRTRTGSNIDCEKLRRRFSSLHFMVEVKGDLTAKKMVLALLELARQDHGALDCCVVVILSHGCQASHLQFPGAVYGTDGCPVSVEKIVNIFNGTSCPSLGGKPKLFFIQACGGEQKDHGFEVASTSPEDESPGSNPEPDATPFQEGLRTFDQLDAISSLPTPSDIFVSYSTFPGFVSWRDPKSGSWYVETLDDIFEQWAHSEDLQSLLLRVANAVSVKGIYKQMPGCFNFLRKKLFFKTSASRA
Basal Activity (relative to wild type/unmodified Caspase-9) (HEK293T/16 cells): Decreased
